Experiments:
cynomolgus α4β7 integrin [1] = biological target: T1, cynomolgus α4β7 integrin (cynomolgus monkey); assay: FACS, cyno CD8+ naïve
T1 construct: whole, on cells; On CHOK1-cα4β7 cells or cynomolgus blood lymphocytes; also called cα4β7; cyno α4β7

cynomolgus α4β7 integrin [2] = biological target: T1, cynomolgus α4β7 integrin; assay: FACS, cynomolgus lymphocytes
cynomolgus α4β7 integrin [3] = biological target: T1, cynomolgus α4β7 integrin; assay: FACS, cyno CD8+ memory
cynomolgus α4β7 integrin [4] = biological target: T1, cynomolgus α4β7 integrin; assay: FACS, cynomolgus CD4+ T cells
cynomolgus α4β7 integrin [5] = biological target: T1, cynomolgus α4β7 integrin; assay: FACS, cyno CD4+ naïve T cells
human α4β1 integrin = biological target: T2, human α4β1 integrin (human, UniProt P05556 21-798); assay: FACS on recombinant cells expressing human α4β1; N=1
T2 construct: whole, on cells; also called hα4β1

[6] = biological target: T3, human FcγRI on CHO-K1 cells (human, UniProt P12314 16-374); assay: flow cytometry on CHO-K1 cells expressing the receptor (curve FcgRI), monomeric antibody, F(ab')2 anti-human IgG AF647; N=1
T3 construct: whole, on cells

[7] = biological target: T4, human FcγRIIIa (F158) extracellular domain protein (human, UniProt P08637 17-208); assay: SPR (Biacore T200), His-tagged FcγR captured by anti-His, antibody injected
T4 construct: extracellular domain; also called hFcγRIIIa (F158); FcγRIIIa158F

[8] = biological target: T5, human FcγRIIIa (V158) extracellular domain protein (human, UniProt P08637 17-208); assay: as above
T5 construct: extracellular domain; also called hFcγRIIIa (V158); FcγRIIIa158V

[9] = biological target: T6, human FcγRIIa (H131) extracellular domain protein (human, UniProt P12318 34-217); assay: as above
T6 construct: extracellular domain; also called hFcγRIIa (H131); FcγRIIa 131H
T6 sequence (looked up): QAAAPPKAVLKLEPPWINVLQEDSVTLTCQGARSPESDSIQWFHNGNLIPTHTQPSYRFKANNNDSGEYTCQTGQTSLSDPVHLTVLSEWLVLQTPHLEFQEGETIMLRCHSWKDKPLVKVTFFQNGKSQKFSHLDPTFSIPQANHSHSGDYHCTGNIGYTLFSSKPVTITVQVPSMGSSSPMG

[10] = biological target: T7, human FcγRI extracellular domain protein (human, UniProt P12314 16-292); assay: as above
T7 construct: extracellular domain; also called hFcγRI

cynomolgus α4β7 integrin [11] = biological target: T1, cynomolgus α4β7 integrin; assay: FACS, cyno CD4+ naïve
[12] = biological target: T8, human FcγRIIc on CHO-K1 cells (human, UniProt P31995 43-323); assay: flow cytometry on CHO-K1 cells expressing the receptor (curve FcgRIIC), monomeric antibody, F(ab')2 anti-human IgG AF647; N=1
T8 construct: whole, on cells
T8 sequence (looked up): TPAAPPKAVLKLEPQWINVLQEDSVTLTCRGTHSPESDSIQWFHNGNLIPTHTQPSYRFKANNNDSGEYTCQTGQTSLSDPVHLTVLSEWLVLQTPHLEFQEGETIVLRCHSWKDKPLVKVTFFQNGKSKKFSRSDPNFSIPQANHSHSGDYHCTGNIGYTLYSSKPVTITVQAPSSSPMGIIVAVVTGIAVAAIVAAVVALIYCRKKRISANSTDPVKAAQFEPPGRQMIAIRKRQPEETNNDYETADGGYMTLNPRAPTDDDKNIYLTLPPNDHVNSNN

[13] = biological target: T9, human FcγRIIIa (V176) on CHO-K1 cells (human, UniProt P08637 17-254); assay: flow cytometry on CHO-K1 cells expressing the receptor (curve FcgRIIIA V176), monomeric antibody, F(ab')2 anti-human IgG AF647; N=1
T9 construct: whole, on cells; also called V158

FcgRIIA H131 = biological target: T10, FcgRIIA H131 (human, UniProt P12318); assay: flow cytometry on CHO-K1 cells expressing the receptor (curve FcgRIIA H131), monomeric antibody, F(ab')2 anti-human IgG AF647; N=1
T10 construct: cell surface, on engineered CHO-K1 cells; the list of molecules has only an FcγRIIa on CHO-K1 cells without the variant; also called human FcγRIIa (H131) on CHO-K1 cells
T10 sequence (receptor chain, looked up): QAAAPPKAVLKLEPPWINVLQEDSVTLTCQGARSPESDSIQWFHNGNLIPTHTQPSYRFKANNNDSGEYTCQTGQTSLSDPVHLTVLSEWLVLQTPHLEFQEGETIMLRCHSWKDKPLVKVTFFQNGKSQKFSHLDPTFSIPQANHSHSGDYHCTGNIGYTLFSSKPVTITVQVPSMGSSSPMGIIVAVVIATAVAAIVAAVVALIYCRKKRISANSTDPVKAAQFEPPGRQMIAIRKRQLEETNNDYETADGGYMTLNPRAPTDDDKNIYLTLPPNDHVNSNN

[14] = biological target: T11, cynomolgus FcγRI extracellular domain protein (cynomolgus monkey); assay: SPR (Biacore T200), FcγR captured, antibody injected
T11 construct: extracellular domain; also called Cyno FcγRI

[15] = biological target: T12, cynomolgus FcγRIII extracellular domain protein (cynomolgus monkey, UniProt Q8SPW2 17-208); assay: as above
T12 construct: extracellular domain; also called Cyno FcγRIII

FcgRIIIB SH = biological target: T13, FcgRIIIB SH (human, UniProt O75015); assay: flow cytometry on CHO-K1 cells expressing the receptor (curve FcgRIIIB SH), monomeric antibody, F(ab')2 anti-human IgG AF647; N=1
T13 construct: cell surface, on engineered CHO-K1 cells; the list of molecules has only an FcγRIIIb on CHO-K1 cells without the allotype; also called human FcγRIIIb (SH) on CHO-K1 cells

rabbit α4β7 integrin = biological target: T14, rabbit α4β7 integrin (rabbit); assay: FACS, rabbit lymphocytes
T14 construct: whole, on cells; On rabbit PBMCs

cynomolgus α4β7 integrin [16] = biological target: T1, cynomolgus α4β7 integrin; assay: FACS, cyno CD8+ naïve; remark: listed apart in the source

T4 sequence (P08637 17-208): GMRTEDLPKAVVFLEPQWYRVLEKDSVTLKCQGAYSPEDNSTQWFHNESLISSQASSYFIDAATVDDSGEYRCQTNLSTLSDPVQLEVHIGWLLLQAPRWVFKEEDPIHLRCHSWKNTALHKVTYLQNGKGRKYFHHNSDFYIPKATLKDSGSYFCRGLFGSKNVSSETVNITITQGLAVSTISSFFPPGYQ
T9 sequence (P08637 17-254 F176V limits assumed): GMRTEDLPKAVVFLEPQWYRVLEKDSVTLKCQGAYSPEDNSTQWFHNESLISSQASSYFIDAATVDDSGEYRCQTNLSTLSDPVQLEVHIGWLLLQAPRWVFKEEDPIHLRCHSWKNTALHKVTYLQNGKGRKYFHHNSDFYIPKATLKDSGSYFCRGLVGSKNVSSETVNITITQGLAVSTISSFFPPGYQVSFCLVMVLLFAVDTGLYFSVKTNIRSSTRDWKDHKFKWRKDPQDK
T12 sequence (Q8SPW2 17-208): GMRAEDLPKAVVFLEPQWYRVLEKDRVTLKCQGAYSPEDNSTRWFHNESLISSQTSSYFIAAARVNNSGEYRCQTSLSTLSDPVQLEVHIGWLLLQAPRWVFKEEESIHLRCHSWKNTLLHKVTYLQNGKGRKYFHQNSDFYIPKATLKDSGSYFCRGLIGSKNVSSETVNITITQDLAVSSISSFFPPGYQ
T13 sequence (O75015 17-200 N65S/A78D limits assumed): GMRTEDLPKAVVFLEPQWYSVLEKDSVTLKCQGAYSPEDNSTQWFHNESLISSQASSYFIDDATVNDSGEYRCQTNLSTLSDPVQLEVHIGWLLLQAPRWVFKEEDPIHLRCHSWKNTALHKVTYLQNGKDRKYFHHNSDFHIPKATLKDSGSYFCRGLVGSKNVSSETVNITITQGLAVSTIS
T5 sequence (P08637 17-208 F176V limits assumed): as the sequence (P08637 17-208) above, with F160V counted along it
T7 sequence (P12314 16-292): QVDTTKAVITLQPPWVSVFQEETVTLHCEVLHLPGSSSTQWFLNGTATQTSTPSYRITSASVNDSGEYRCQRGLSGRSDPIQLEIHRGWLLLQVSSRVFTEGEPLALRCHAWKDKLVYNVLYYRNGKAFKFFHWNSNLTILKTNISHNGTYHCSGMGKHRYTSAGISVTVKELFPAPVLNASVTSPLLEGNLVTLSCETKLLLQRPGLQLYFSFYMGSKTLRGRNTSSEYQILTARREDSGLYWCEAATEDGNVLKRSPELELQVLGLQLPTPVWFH
T3 sequence (P12314 16-374): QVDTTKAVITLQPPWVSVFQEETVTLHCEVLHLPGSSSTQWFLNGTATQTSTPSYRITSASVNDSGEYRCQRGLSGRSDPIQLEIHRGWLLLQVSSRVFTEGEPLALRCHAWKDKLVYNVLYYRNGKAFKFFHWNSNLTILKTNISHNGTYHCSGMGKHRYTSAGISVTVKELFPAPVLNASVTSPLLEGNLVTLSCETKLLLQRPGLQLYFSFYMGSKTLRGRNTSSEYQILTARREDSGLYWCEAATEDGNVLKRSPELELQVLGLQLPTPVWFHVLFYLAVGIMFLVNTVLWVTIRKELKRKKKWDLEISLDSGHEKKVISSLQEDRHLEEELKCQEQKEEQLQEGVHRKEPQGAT

B1: Ab-h1.9d-WT (antibody, human IgG1, kappa)
heavy: not shown
light: DIQMTQSPSSLSASVGDRVTITCHASQDISDNIGWLQQKPGKSFKLLIYHGTNLEDGVPSRFSGSGSGTDYTLTISSLQPEDFATYYCVQYAQFPWTFGGGTKVEIKRTVAAPSVFIFPPSDEQLKSGTASVVCLLNNFYPREAKVQWKVDNALQSGNSQESVTEQDSKDSTYSLSSTLTLSKADYEKHKVYACEVTHQGLSSPVTKSFNRGEC
notes: IgG1/kappa with D356E and L358M (EU); also called Anti-human α4β7 (AC-166667) hu IgG1/k WT mAb
EC50 (cynomolgus α4β7 integrin [1]): 0.042 nM | EC50 (cynomolgus α4β7 integrin [2]): 0.062 nM | EC50 (cynomolgus α4β7 integrin [3]): 0.036 nM | EC50 (cynomolgus α4β7 integrin [4]): 0.03 nM | EC50 (cynomolgus α4β7 integrin [5]): 0.045 nM | binding result (human α4β1 integrin): no binding (tested: about 70 (axis without unit)) | binding result [6]: binds | Kd [7]: 4600 nM | Kd [8]: 480 nM | Kd [9]: 5600 nM | Kd [10]: 16 nM | EC50 (cynomolgus α4β7 integrin [11]): 0.045 nM | binding result [12]: binds | binding result [13]: binds | binding result (FcgRIIA H131): binds | Kd [14]: 12 nM | Kd [15]: 280 nM | binding result (FcgRIIIB SH): binds | EC50 (rabbit α4β7 integrin): 0.089 nM | EC50 (cynomolgus α4β7 integrin [16]): 0.042 nM

— patent publication US20260062488A1 (AbbVie / Abbott, published 2026)
